The results in this text go back to patent US20150139999A1 (RUTGERS THE STATE UNIVERSITY OF NEW JERSEY, published 2015).

For this experiment, the target named is T1, B18-FL (Vaccinia virus strain Western Reserve B18 protein with a FLAG epitope at the C terminus, sec (Vaccinia virus strain Western Reserve, UniProt P25213 20-351)).
T1 construct: mature
In words: covalent crosslinking in solution, SDS-PAGE.

B1: [^32P]-His-Strep-IFN-λ1-P (secreted human IFN-λ1 with N-terminal His-Strep tag and C-terminal phosphorylation site) (ligand)
chain: HHHHHHPDHWSHPQFEKGPVPTSKPTTTGKGCHIGRFKSLSPQELASFKKARDALEESLKLKNWSCSSPVFPGNWDLRLLQVRERPVALEAELALTLKVLEAAAGPALEDVLDQPLHTLHHILSQLQACIQPQPTAGPRPRGRLHHWLHRLQEAPKKESAGCLEASVTFNLFRLLTRDLKYVADGNLCLRTSTHPESTRRASVA
notes: mature; also called His-Strep-IFN-λ1J-P
Consider B1, for which the binding result is “no binding”.
